B1: Vangl2 in COS-7 cells (receptor)
chain: MDTESQYSGYSYKSGHSRSSRKHRDRRDRHRSKSRDGGRGDKSVTIQAPGEPLLDNESTRGDERDDNWGETTTVVTGTSEHSISHDDLTRIAKDMEDSVPLDCSRHLGVAAGATLALLSFLTPLAFLLLPPLLWREELEPCGTACEGLFISVAFKLLILLLGSWALFFRRPKASLPRVFVLRALLMVLVFLLVVSYWLFYGVRILDARERSYQGVVQFAVSLVDALLFVHYLAVVLLELRQLQPQFTLKVVRSTDGASRFYNVGHLSIQRVAVWILEKYYHDFPVYNPALLNLPKSVLAKKVSGFKVYSLGEENSTNNSTGQSRAVIAAAARRRDNSHNEYYYEEAEHERRVRKRRARLVVAVEEAFTHIKRLQEEEQKNPREVMDPREAAQAIFASMARAMQKYLRTTKQQPYHTMESILQHLEFCITHDMTPKAFLERYLAAGPTIQYHKERWLAKQWTLVSEEPVTNGLKDGIVFLLKRQDFSLVVSTKKVPFFKLSEEFVDPKSHKFVMRLQSETSV
notes: Vangl2 immunoprecipitated with 2G4 mAb from COS-7 cells
B2: EGFP-tagged p62 (1-122), PB1 domain alone (other)
chain: MASLTVKAYLLGKEDAAREIRRFSFCCSPEPEAEAEAAAGPGPCERLLSRVAALFPALRPGGFQAHYRDEDGDLVAFSSDEELTMAMSYVKDDIFRIYIKEKKECRRDHRPPCAQEAPRNMV
notes: not shown: EGFP tag

Experiments:
[1] = molecular target: GFP-p62 with deletion of a region containing the LIR domain (256-370) (Homo sapiens, UniProt P42212 1-238 = GFP); test: immunoprecipitation with 2G4 mAb, COS-7 cells
Vangl2 in COS-7 cells = molecular target: B1; test: immunoprecipitation with 2G4 mAb, COS-7 cells

| Binder | binding result [1] | binding result (Vangl2 in COS-7 cells) |
| --- | --- | --- |
| B1 | no binding |  |
| B2 |  | no binding |

Reference: patent US20160032005A1 (INSERM INSTITUT NATIONAL DE LA SANTE ET DE LA RECHERCHE …, published 2016)
